Data taken from US20090325168A1 (ONCOIMMUNIN, published 2009).
Square brackets hold non-standard residues; d marks the D form. Ends that are not written are not given here. * marks the point of attachment. 5‑TMR = 5'-carboxytetramethylrhodamine, CN(C)c1ccc2c(-c3ccc(C(=O)*)cc3C(=O)[O-])c3ccc(=[N+](C)C)cc-3oc2c1; rhodamine X acetamide = R492, linked via the cysteine sulfhydryl; Fmoc = O=C(OCC1c2ccccc2-c2ccccc21)*; Nle = CCCC[C@H](N)C(=O)O; Aib = CC(C)(N)C(=O)O; Ahx = NCCCCCC(=O)O

T1: CPP32 protease (human (Jurkat cells), UniProt P42574 29-277)
T1 sequence (looked up): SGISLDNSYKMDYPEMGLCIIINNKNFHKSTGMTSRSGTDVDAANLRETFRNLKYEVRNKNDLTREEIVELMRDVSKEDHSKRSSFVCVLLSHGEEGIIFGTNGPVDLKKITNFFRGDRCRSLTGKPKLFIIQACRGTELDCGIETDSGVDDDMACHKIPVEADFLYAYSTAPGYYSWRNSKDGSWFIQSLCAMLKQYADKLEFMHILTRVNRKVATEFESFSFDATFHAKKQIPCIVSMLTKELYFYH


Assays:
CPP32 protease = target: T1, CPP32 protease; assay: cell-based or functional assay
elastase = assay: cell-based or functional assay

Row | Binder | increase in fluorescence intensity in anti-Fas-activated Jurkat cells (flow cytometry) (CPP32 protease) | increase in fluorescence at 589 nm after treatment with elastase (elastase) | increase in fluorescence within the first 1000 seconds of exposure to elastase (elastase)
1 | Fmoc-K(carboxytetramethylrhodamine)D[Aib][Ahx]GDEVDGIDG[Ahx]PK(carboxytetramethylrhodamine)GY [Fm-CGD2D, Fm-K[F1]DBJGDEVDGIDGJPK[F1]GY (compound 11 of Table 12)] | ≤ 10 fold | – | –
2 | {5‑TMR}-DAIP[Nle]SIPC(rhodamine X acetamide) [D-NorFES-A protease indicator, F1-Asp-Ala-Ile-Pro-Nle-Ser-Ile-Pro-Cys-F2] | – | > 10 fold | > 5 fold
